Source: patent US6271012

Legend:
[1] = molecular target: succinyl-L-alanyl-L-alanyl-L-prolyl-L-phenylalanyl-p-nitroanilide (not provided)
[2] = molecular target: casein (Hammerstein, Merck)
[3] = molecular target: casein (Hammerstein, Merck); remark: listed apart in the source

PB92 protease mutant N212D (enzyme)
kcat/Km (Km in mM and kcat in 1/s) [1]: 86000 M⁻¹ s⁻¹ | Specific activity relative to PB92 protease (%), ADU method [2]: 100%

PB92 protease mutant [S160G, N212D] (enzyme)
kcat/Km (Km in mM and kcat in 1/s) [1]: 18000 M⁻¹ s⁻¹ | Specific activity relative to PB92 protease (%), ADU method [2]: 76%

PB92 protease mutant M117L, M216S (enzyme)
kcat/Km (Km in mM and kcat in 1/s) [1]: 8000 M⁻¹ s⁻¹ | Specific activity relative to PB92 protease (%), ADU method [2]: 36%

PB92 protease mutant M216S (enzyme)
kcat/Km (Km in mM and kcat in 1/s) [1]: 5000 M⁻¹ s⁻¹ | Specific activity relative to PB92 protease (%), ADU method [2]: 40%

PB92 protease mutant M117L, M216Q (enzyme)
kcat/Km (Km in mM and kcat in 1/s) [1]: 2000 M⁻¹ s⁻¹ | Specific activity relative to PB92 protease (%), ADU method [2]: 27%

PB92 protease mutant N212S (enzyme)
Specific activity relative to PB92 protease (%), ADU method [2]: 85%

PB92 protease mutant [S126M, P127A, S128G] (enzyme)
kcat/Km (Km in mM and kcat in 1/s) [1]: 180000 M⁻¹ s⁻¹ | Specific activity relative to PB92 protease (%), ADU method [2]: 115%

PB92 protease mutant [S160D, M216Q] (enzyme)
Specific activity relative to PB92 protease (%), ADU method [2]: 12%

PB92 protease mutant G116V, S126Y, P127G, S128L (enzyme)
Specific activity relative to PB92 protease (%), ADU method [2]: 69%

PB92 protease mutant S160D (enzyme)
kcat/Km (Km in mM and kcat in 1/s) [1]: 12000 M⁻¹ s⁻¹ | Specific activity relative to PB92 protease (%), ADU method [2]: 73%

PB92 protease mutant M216C (enzyme)
kcat/Km (Km in mM and kcat in 1/s) [1]: 30000 M⁻¹ s⁻¹ | Specific activity relative to PB92 protease (%), ADU method [2]: 36%

PB92 protease M216-oxidized (enzyme)
kcat/Km (Km in mM and kcat in 1/s) [1]: 9000 M⁻¹ s⁻¹ | Specific activity relative to PB92 protease (%), ADU method [2]: 50%

PB92 protease mutant [G116V, S126L, P127N, S128V] (enzyme)
kcat/Km (Km in mM and kcat in 1/s) [1]: 65000 M⁻¹ s⁻¹ | Specific activity relative to PB92 protease (%), ADU method [2]: 81%

PB92 protease mutant [G116V, S126R, P127S, S128P] (enzyme)
Specific activity relative to PB92 protease (%), ADU method [2]: 81%

PB92 protease mutant M169I, M216S (enzyme)
Specific activity relative to PB92 protease (%), ADU method [2]: 44%

PB92 protease mutant [G116V, S126L, P127Q, S128A] (enzyme)
kcat/Km (Km in mM and kcat in 1/s) [1]: 57000 M⁻¹ s⁻¹ | Specific activity relative to PB92 protease (%), ADU method [2]: 62%

PB92 protease mutant S160K (enzyme)
kcat/Km (Km in mM and kcat in 1/s) [1]: 11000 M⁻¹ s⁻¹ | Specific activity relative to PB92 protease (%), ADU method [2]: 47%

PB92 protease mutant [G116V, S126V, P127E, S128K] (enzyme)
kcat/Km (Km in mM and kcat in 1/s) [1]: 86000 M⁻¹ s⁻¹ | Specific activity relative to PB92 protease (%), ADU method [2]: 43%

PB92 protease mutant E134K (enzyme)
kcat/Km (Km in mM and kcat in 1/s) [1]: 49000 M⁻¹ s⁻¹ | Specific activity relative to PB92 protease (%), ADU method [2]: 95%

PB92 protease mutant [S160D, M216S] (enzyme)
Specific activity relative to PB92 protease (%), ADU method [2]: 17%

PB92 protease mutant [G116V, S126F, P127L, S128T] (enzyme)
kcat/Km (Km in mM and kcat in 1/s) [1]: 19000 M⁻¹ s⁻¹

PB92 protease mutant [G116V, S126H, P127Y] (enzyme)
Specific activity relative to PB92 protease (%), ADU method [2]: 73%

PB92 protease mutant [G116V, S126G, P127Q, S128I] (enzyme)
kcat/Km (Km in mM and kcat in 1/s) [1]: 13000 M⁻¹ s⁻¹ | Specific activity relative to PB92 protease (%), ADU method [2]: 95%

PB92 protease mutant [G116V, S126V, P127M] (enzyme)
kcat/Km (Km in mM and kcat in 1/s) [1]: 98000 M⁻¹ s⁻¹ | Specific activity relative to PB92 protease (%), ADU method [2]: 69%

PB92 protease (serine protease of Bacillus nov. spec. PB92) (enzyme)
turnover number (kcat) measured on casein [3]: 90 s⁻¹ | kcat/Km (Km in mM and kcat in 1/s) [1]: 102000 M⁻¹ s⁻¹

PB92 protease mutant S160C (enzyme)
kcat/Km (Km in mM and kcat in 1/s) [1]: 21000 M⁻¹ s⁻¹ | Specific activity relative to PB92 protease (%), ADU method [2]: 48%

PB92 protease mutant G116V, S126N, P127H, S128I (enzyme)
Specific activity relative to PB92 protease (%), ADU method [2]: 115%

PB92 protease mutant [A166D, M169I] (enzyme)
Specific activity relative to PB92 protease (%), ADU method [2]: 100%

PB92 protease mutant M216Q (enzyme)
kcat/Km (Km in mM and kcat in 1/s) [1]: 3000 M⁻¹ s⁻¹ | Specific activity relative to PB92 protease (%), ADU method [2]: 37%
